The values that follow come from US20050112126A1 (Genentech, published 2005).

Several values for one entry are separate records, joined by “and”; a condition that tells them apart may be missing. Identical values can stand only once.

For assay [1], the target named is T1, VEGF (human, UniProt P15692-4 27-191, limits assumed).
T1 construct: Biotinylated in the KDR-IgG ELISA, amine-coupled to the chip in BIAcore; also called biotinylated VEGF; vascular endothelial growth factor
Nature of the assay: BIAcore SPR, F(ab) over immobilized VEGF, koff/kon. An excerpt: (§1) BIAcore™ Biosensor Assay: VEGF binding of the humanized and chimeric F(ab)s were compared using a BIAcore™ biosensor (Karlsson et al. Methods: A Comparison to Methods in Enzymology 6:97-108 (1994)). […] VEGF was coupled to a CM-5 biosensor chip through primary amine groups according to manufacturer's instructions (Pharmacia). […] Data points from 0-4500 sec were used for off-rate kinetic analysis. The dissociation rate constant (koff) was obtained from the slope of the plot of ln(R0/R) versus time, where R0 is the signal at t=0 and R is the signal at each time point.
(§2) The slope, Kₛ, was obtained from the plot of ln(−dR/dt) versus time for each F(ab) concentration using the BIAcore™ kinetics evaluation software as described in the Pharmacia Biosensor manual. R is the signal at time t. […] The association rate constant (kₒₙ) was obtained from the slope of the plot of Kₛ versus F(ab) concentration. At the end of each cycle, bound F(ab) was removed by injecting 5 μl of 50 mM HCl at a flow rate of 20 μl/min to regenerate the chip.
A general note: In SPR one partner is held on a chip, and binding of the other changes the refractive index at the surface.

The target in assay [2] is T2, VEGF121 (human, UniProt P15692 27-147).
T2 construct: mature; Immobilized on the biosensor chip via primary amino groups; also called Purified VEGF121
T2 sequence (looked up): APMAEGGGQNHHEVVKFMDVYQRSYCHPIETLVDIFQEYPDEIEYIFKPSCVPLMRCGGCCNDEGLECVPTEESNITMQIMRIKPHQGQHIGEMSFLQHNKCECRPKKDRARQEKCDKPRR
In words: BIAcore SPR, Fab over immobilized VEGF121. The procedure:
VEGF₁₂₁ was covalently immobilized on the biosensorchip via primary amino groups. Binding of humanized A4.6.1 Fab variants was measured by flowing solutions of Fab in PBS/0.05% TWEEN 20™ over the chip at a flow rate of 20 μL/min. Following each binding measurement, residual Fab was stripped from the immobilized ligand by washing with 5 μL of 50 mM aqueous HCl at 3 μL/min. Binding profiles were analyzed by nonlinear regression using a simple monovalent binding model (BIAevaluation software v2.0; Pharmacia).

Assay [3] addresses T1, VEGF. Nature of the assay: BIAcore SPR, F(ab) over immobilized VEGF.
From the text: as §1, §2

In assay [4] the target is T1, VEGF. In words: competition ELISA (biotinylated VEGF to KDR-IgG). The method, then:
Standards (6.9-440 ng/ml chimeric F(ab)) and two-fold serial of samples were incubated with 2 nM biotinylated VEGF for 1 h in tubes. The solutions from the tubes were then transferred to the ELISA plates and incubated for 1 h. […] Titration curves were fit with a four-parameter nonlinear regression curve-fitting program (KaleidaGraph, Synergy Software, Reading Pa.). […] Assays for full-length IgG were the same as for the F(ab)s except that the assay buffer contained 10% human serum.
In general terms: ELISA stands for enzyme-linked immunosorbent assay.

B1: chimeric F(ab) (Fab, V domains shown)
VH: EIQLVQSGPELKQPGETVRISCKASGYTFTNYGMNWVKQAPGKGLKWMGWINTYTGEPTYAADFKRRFTFSLETSASTAYLQISNLKNDDTATYFCAKYPHYYGSSHWYFDVWGAGTTVTVSS
VL: DIQMTQTTSSLSASLGDRVIISCSASQDISNYLNWYQQKPDGTVKVLIYFTSSLHSGVPSRFSGSGSGTDYSLTISNLEPEDIATYYCQQYSTVPWTFGGGTKLEIKR
notes: also called chim-F(ab); A4.6.1 chimera
In general, Kd refers to the concentration at which binding is half-saturated. High values mean lower affinity, low ones higher affinity. Usually koff stands for the rate constant with which the complex falls apart. A higher koff goes with fast dissociation. One may read the kon as a measure of how fast the partners come together. As a reminder, the EC50 is the concentration that produces a half-maximal response. B1 gave a Kd in assay [1] of 0.91 nM. In assay [2], the Kd was 1.6 nM, the koff stood at 8.5e-05 s⁻¹ and the kon was 54000 M⁻¹ s⁻¹. In assay [3], this molecule yielded a koff of 5.9e-05 s⁻¹ and a kon of 65000 M⁻¹ s⁻¹. Moreover, in assay [4], the EC50 is 0.049 µg/mL and 1 nM; the “EC50 F(ab)-X / EC50 chimeric F(ab)” value worked out at 1 ratio.
